# Laboratory results: paper PMC4382182, “Characterization of Phospho-(Tyrosine)-Mimetic Calmodulin Mutants” (PLoS ONE, 2015)
# Target: endothelial nitric oxide synthase (eNOS) (bovine recombinant baculovirus-expressed in Sf9 cells) (bovine) (UniProt P29473)
# Sequence (P29473 whole entry): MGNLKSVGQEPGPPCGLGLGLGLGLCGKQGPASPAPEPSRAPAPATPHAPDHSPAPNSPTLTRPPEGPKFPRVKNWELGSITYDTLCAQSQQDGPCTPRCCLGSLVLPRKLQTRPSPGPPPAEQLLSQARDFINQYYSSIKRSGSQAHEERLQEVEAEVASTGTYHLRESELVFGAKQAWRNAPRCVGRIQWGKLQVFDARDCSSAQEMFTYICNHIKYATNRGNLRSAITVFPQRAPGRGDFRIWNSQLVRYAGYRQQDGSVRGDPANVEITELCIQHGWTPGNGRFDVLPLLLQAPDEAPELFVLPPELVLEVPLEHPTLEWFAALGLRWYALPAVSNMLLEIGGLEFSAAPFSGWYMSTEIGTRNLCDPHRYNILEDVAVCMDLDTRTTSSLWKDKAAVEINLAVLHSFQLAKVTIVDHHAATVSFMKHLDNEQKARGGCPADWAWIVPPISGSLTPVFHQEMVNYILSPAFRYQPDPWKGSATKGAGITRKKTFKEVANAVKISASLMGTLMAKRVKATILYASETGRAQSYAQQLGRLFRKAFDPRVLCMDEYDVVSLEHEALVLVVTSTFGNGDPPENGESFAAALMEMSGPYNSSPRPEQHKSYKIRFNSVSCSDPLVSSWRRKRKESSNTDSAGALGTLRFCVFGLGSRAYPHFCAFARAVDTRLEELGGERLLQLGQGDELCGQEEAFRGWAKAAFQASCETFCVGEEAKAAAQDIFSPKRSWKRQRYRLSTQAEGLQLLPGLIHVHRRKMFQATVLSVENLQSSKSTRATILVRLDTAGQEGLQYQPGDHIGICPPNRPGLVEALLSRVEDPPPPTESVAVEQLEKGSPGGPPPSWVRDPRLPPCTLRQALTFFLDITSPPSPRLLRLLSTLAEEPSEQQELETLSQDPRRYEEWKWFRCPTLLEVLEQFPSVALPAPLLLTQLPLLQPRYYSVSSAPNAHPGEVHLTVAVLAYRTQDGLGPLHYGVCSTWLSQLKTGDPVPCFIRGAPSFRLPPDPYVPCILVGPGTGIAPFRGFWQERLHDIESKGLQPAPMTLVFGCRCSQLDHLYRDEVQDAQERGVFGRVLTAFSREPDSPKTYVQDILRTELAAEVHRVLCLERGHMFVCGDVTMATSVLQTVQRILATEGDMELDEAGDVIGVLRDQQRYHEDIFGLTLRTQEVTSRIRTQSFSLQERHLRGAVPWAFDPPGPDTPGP
substance,measurement,value
purified bovine brain phospho-(Y)-CaM (phosphorylated by c-Src and free of non-phosphorylated CaM) (from UniProt P62157 1-149) (natural protein),"increase of eNOS activity by phospho-(Y)-CaM over that by non-phosphorylated CaM, at increasing concentrations of CaM",30%
